This note sets out measurements from publication PMC11046300 (The Journal of Biological Chemistry, 2024).

B2: His-TEAD4-YBD (domain or fragment, human, UniProt Q15561 217-434, looked up)
chain: RSVASSKLWMLEFSAFLEQQQDPDTYNKHLFVHIGQSSPSYSDPYLEAVDIRQIYDKFPEKKGGLKDLFERGPSNAFFLVKFWADLNTNIEDEGSSFYGVSSQYESPENMIITCSTKVCSFGKQVVEKVETEYARYENGHYSYRIHRSPLCEYMINFIHKLKHLPEKYMMNSVLENFTILQVVTNRDTQETLLCIAYVFEVSASEHGAQHHIYRLVKE

Holding throughout (assay): pull-down
Assay [1] deals with T1, GST-NF2 FERM domain (1-341 aa) (human, UniProt P35240 1-341).
T1 sequence (looked up): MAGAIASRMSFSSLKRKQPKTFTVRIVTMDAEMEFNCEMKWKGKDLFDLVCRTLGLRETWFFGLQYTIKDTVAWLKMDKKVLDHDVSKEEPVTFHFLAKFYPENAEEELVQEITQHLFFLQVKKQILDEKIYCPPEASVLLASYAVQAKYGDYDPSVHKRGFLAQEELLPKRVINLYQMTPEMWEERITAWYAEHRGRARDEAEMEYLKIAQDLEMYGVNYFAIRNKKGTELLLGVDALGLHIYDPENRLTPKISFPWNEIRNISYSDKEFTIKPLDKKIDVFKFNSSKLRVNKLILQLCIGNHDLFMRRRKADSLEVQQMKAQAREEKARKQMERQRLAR

The target in assay [2] is T2, GST-NF2 C-terminal half (342-595 aa) (human, UniProt P35240 342-595).
T2 sequence (looked up): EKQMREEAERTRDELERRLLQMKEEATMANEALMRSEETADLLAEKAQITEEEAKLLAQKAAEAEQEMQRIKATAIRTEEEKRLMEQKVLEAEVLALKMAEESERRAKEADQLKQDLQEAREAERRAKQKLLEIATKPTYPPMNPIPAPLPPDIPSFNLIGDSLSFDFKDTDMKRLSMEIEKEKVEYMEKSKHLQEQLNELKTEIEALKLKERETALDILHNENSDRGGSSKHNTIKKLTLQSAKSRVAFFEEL

Assay [3] has as its target T3, GST-tagged full-length NF2 (human, UniProt P35240 1-595).
T3 sequence (looked up): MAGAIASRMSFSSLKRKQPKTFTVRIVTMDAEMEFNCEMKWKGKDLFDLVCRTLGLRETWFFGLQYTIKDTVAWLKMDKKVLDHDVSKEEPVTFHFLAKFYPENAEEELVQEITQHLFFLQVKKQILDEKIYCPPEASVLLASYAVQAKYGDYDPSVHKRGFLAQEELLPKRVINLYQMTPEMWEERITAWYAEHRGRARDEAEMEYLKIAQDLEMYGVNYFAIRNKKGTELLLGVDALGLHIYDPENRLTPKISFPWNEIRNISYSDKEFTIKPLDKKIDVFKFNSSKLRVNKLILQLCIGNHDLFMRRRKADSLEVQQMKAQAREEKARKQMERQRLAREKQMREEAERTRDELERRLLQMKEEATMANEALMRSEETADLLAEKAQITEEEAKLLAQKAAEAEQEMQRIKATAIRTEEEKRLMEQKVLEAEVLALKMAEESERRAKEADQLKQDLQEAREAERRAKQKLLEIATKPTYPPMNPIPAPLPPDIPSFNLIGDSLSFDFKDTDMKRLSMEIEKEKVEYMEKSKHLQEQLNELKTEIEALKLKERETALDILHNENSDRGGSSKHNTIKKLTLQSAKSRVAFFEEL

A further assay has as its target T4, MBP-NF2 (18-595) (human, UniProt P35240 18-595).
T4 sequence (looked up): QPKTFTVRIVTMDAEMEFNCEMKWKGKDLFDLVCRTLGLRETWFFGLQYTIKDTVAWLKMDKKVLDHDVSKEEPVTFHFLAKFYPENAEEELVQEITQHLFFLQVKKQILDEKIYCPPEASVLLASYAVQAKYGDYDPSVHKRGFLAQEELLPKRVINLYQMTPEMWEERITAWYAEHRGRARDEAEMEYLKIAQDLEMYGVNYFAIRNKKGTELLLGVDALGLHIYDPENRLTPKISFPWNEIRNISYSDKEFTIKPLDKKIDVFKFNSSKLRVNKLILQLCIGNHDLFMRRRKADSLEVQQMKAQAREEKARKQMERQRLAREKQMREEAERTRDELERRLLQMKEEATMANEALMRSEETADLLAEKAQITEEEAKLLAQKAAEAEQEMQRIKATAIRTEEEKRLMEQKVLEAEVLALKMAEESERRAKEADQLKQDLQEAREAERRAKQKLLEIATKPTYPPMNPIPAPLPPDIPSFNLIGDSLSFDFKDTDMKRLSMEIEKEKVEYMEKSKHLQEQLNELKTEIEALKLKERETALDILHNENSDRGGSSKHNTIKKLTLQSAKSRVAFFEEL

A further assay deals with T5, MBP-NF2 A585W (human, UniProt P35240 18-595, A585W).
T5 sequence (looked up): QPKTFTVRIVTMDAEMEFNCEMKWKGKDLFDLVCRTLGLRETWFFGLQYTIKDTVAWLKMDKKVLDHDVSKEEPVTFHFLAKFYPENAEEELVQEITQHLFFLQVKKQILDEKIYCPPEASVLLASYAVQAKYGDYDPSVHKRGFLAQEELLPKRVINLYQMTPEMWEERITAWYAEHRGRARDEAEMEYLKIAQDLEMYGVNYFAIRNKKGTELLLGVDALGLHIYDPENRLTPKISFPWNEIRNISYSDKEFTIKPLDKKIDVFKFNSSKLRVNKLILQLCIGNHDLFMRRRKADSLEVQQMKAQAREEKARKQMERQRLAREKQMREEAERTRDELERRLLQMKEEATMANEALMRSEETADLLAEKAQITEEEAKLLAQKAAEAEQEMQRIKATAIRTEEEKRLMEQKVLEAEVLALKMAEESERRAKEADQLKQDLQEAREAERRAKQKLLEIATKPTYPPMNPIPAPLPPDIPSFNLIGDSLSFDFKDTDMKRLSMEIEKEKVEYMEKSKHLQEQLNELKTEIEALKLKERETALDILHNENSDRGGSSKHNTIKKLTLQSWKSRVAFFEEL

The target in the assay “His-TEAD4-YBD” is B2.

B1: SUMO-His-tagged TEAD4 YBD domain (217-434) (domain or fragment, human, UniProt Q15561 217-434, looked up)
chain: RSVASSKLWMLEFSAFLEQQQDPDTYNKHLFVHIGQSSPSYSDPYLEAVDIRQIYDKFPEKKGGLKDLFERGPSNAFFLVKFWADLNTNIEDEGSSFYGVSSQYESPENMIITCSTKVCSFGKQVVEKVETEYARYENGHYSYRIHRSPLCEYMINFIHKLKHLPEKYMMNSVLENFTILQVVTNRDTQETLLCIAYVFEVSASEHGAQHHIYRLVKE
Turning to B1, the binding result in assay [1], in assay [2] and in assay [3] was “binds” in each case.
As for B2, the binding result (with MBP-NF2 (18-595); with MBP-NF2 A585W; in assay [1]) was “binds” each time.

B3: GST-NF2-507-595 (domain or fragment, human, UniProt P35240 507-595, looked up)
chain: FDFKDTDMKRLSMEIEKEKVEYMEKSKHLQEQLNELKTEIEALKLKERETALDILHNENSDRGGSSKHNTIKKLTLQSAKSRVAFFEEL
Consider B3, for which the binding result with His-TEAD4-YBD is “binds”.
